The source of these data is US20210284749A1 (ABL BIO, published 2021).

Changes are numbered by the printed parent chain.

First the molecules themselves.
T1: recombinant human BCMA (ELISA antigen, construct not specified) (human, UniProt Q02223 1-54)
T1 construct: Fc 1-51; Fc/His 1-51; Fc 4-48) was coated in these ELISAs; also called recombinant BCMA; recombinant protein
T1 sequence: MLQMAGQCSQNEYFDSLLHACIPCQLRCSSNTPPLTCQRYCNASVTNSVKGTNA

T2: human BCMA-Fc/His (1-51) (human, UniProt Q02223 1-51)
T2 construct: also called recombinant human BCMA-Fc/His; recombinant human BCMA-His (Sino Biological Inc.); not shown: Fc region; C-terminal His tag
T2 sequence: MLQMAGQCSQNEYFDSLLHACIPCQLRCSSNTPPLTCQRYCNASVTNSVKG

B1: anti-BCMA IgG antibody 2G (antibody, V domains shown)
VH: EVQLVESGGGLVQPGGSLRLSCAASGFTFSNYAMSWVRQAPGKGLEWVSAISSSGSTIYYADSVKGRFTISRDNSKNTLYLQMNSLRAEDTAVYYCAKAGYYGSIYAFDYWGQGTLVTVSS
VL: DIQMTQSPSSLSASVGDRVTITCRASQSISSYLNWYQQKPGKAPKLLIYATSRLQSGVPSRFSGSGSGTDFTLTISSLQPEDFATYYCQQSSSFPWTFGQGTKVEIKR
B2: anti-BCMA IgG antibody 1H (antibody, V domains shown)
VH: EVQLVESGGGLVQPGGSLRLSCAASGFTFSNYAMSWVRQAPGKGLEWVSGISHSGSSTYYADSVKGRFTISRDNSKNTLYLQMNSLRAEDTAVYYCAKHVYIIEFESLDIWGQGTLVTVSS
VL: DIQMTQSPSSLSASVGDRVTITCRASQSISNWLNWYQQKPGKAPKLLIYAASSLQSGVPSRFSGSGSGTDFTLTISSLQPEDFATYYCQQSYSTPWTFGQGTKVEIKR
B3: anti-BCMA IgG antibody 5C3 (antibody, V domains shown)
VH: EVQLLESGGGLVQPGGSLRLSCAASGFTFSDYYIHWVRQAPGKGLEWVSAISGSGGSTYYADSVKGRFTISRDNSKNTLYLQMNSLRAEDTAVYYCASDLGDTTFDSWGQGTLVTVSS
VL: EIVLTQSPGTLSLSPGERATLSCQASDDISNYLNWYQQKPGQAPRLLIYGVSNRASGIPDRFSGSGSGTDFTLTISRLEPEDFAVYYCQQSYSTPPITFGQGTKLEIKR
B4: anti-BCMA IgG antibody 4H9 (antibody, V domains shown)
VH: EVQLLESGGGLVQPGGSLRLSCAASGFTFSGYSMSWVRQAPGKGLEWVSSIYHTGYTYYNPSLKSRFTISRDNSKNTLYLQMNSLRAEDTAVYYCARYKSGAFDIWGQGTLVTVSS
VL: EIVLTQSPGTLSLSPGERATLSCRASQSVSRNLAWYQQKPGQAPRLLIYGVSSRATGIPDRFSGSGSGTDFTLTISRLEPEDFAVYYCQQYGSSPPTFGQGTKVEIKR
B5: anti-BCMA IgG antibody 2C6 (antibody, V domains shown)
VH: EVQLLESGGGLVQPGGSLRLSCAASGFTFSNYGMSWVRQAPGKGLEWVSSIDYNGSTYYNPSLKSRFTISRDNSKNTLYLQMNSLRAEDTAVYYCAKEHGLFDSWGQGTLVTVSS
VL: EIVLTQSPGTLSLSPGERATLSCRVSQSISSYLNWYQQKPGQAPRLLIYDASTRAIGIPDRFSGSGSGTDFTLTISRLEPEDFAVYYCQQVNSYPITFGQGTKVEIKR
B6: anti-BCMA IgG antibody 2F8 (antibody, V domains shown)
VH: EVQLLESGGGLVQPGGSLRLSCAASGFTFSNYGMSWVRQAPGKGLEWVSEIIPIFDTSNYAQKFQGRFTISRDNSKNTLYLQMNSLRAEDTAVYYCAKIPGNRHDYWGQGTLVTVSS
VL: QSVLTQPPSASGTPGQRVTISCTRMQRQSDWYQQLPGTAPKLLIYDNNKRPLGVPDRFSGSKSGTSASLAISGLRSEDEADYYCQSYDSNAYVVFGGGTKLTVLG
B7: anti-BCMA IgG antibody 5G (antibody, V domains shown)
VH: B2 VH with H53Q, V100A, L108M
VL: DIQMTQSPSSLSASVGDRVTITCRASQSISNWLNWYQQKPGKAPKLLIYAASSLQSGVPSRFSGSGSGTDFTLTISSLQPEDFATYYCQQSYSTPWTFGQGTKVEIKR

One assay has as its target T1, recombinant human BCMA (ELISA antigen, …). Kind of assay: ELISA on coated recombinant human BCMA, antibody titrated, HRP anti-Fab detection, absorbance 450 nm. As for the experimental part:
(§1) Using recombinant human BCMA or monkey BCMA as an antigen, and HRP-conjugated Fab polychronal antibody reagent (Pierce, 31414) as a secondary antibody, ELISA was performed as described in Example 1.3.
A general note: An ELISA detects its analyte on a solid surface through an enzyme-linked reagent.
What is called EC50 (read off the curve) is the concentration giving half of the maximal effect. As to B1, the “EC50 (read off the curve)” value was approximately 0.04 µg/mL.
On the same count and under the same terms, then B2, with approximately 0.08 µg/mL.

For the next assay the target is unchanged. The assay is described as above. This is another data set of the same source. On the procedure: Specific binding abilities of the anti-BCMA IgG antibodies isolated in Example 1.4 to recombinant BCMA protein were analyzed by ELISA.
as §1
B3: the “EC50 (read off the curve)” value is approximately 0.9 µg/mL.
Same read-out and setting: next, B4: approximately 0.01 µg/mL; B5: approximately 0.05 µg/mL; B6: approximately 0.07 µg/mL.

The target of a further assay is T2, human BCMA-Fc/His (1-51). Kind of assay: BLI (Octet), antigen on Ni-NTA biosensor, IgG in solution. On the procedure: A 96-well black microplate was mounted on a Biosensor tray case, 200 μl of 1XKB was added to each of the 8 wells, and then 8 Ni-NTA biosensors (Fortebio) were inserted thereto for hydration for 10 minutes. For antigen fixation, 5 μg/ml of recombinant human BCMA-His (Sino Biological Inc.) was diluted using 1XKB. Experiments were performed with a threshold of 0.5 to 1.0 nm, and Octet Data Acquisition 9.0 software was activated to create an Octet program template. The first step was for Baseline 1, the second step was for loading, and the threshold was fixed to 0.5 to 1.0 nm. In the third step, which was for Baseline 2, association for 5 minutes and dissociation for 20 minutes were performed. A plate temperature was fixed to 30° C., and the prepared buffer solution was placed in order into a new 96-well black microplate according to the Octet program template. 200 μl of 1XKB used as Baseline 1 and recombinant human BCMA-Fc/His which is an antigen to be loaded were diluted to 5 μg/ml, and 200 μl of the dilution was added thereto. After adding 200 μl of 1XKB used as Baseline 2, 200 μl of the antibody to be reacted with the antigen was dispensed, and the instrument was operated. After completion of the experiment, an association constant (kon), a dissociation constant (kdis), and an equilibrium dissociation constant (KD) for each antibody were analyzed and calculated with Octet Analysis 9.0 software.
A general note: Biolayer interferometry detects binding as a change in optical thickness at a sensor tip.
Broadly, the Kd is the free concentration of one partner at which half of the binding sites on the other are occupied at equilibrium, for simple one-to-one binding. As a reminder, the koff is a measure of how fast the partners let go of each other. Usually kon stands for the rate constant with which the complex forms. B3 returned a Kd of 16.4 nM, a koff of 0.00966 s⁻¹ and a kon of 591000 M⁻¹ s⁻¹.
As to B1, the affinity, expressed as Kd, was 1.08 nM; the koff worked out at 0.00078 s⁻¹; the kon worked out at 720000 M⁻¹ s⁻¹.
Taken in the same sequence, the figures for B4 were 1.29 nM, 0.00179 s⁻¹ and 1.38e+06 M⁻¹ s⁻¹.
As for B2, the Kd amounted to 1.45 nM, the koff came to 0.000592 s⁻¹ and the kon is 409000 M⁻¹ s⁻¹.
In the same order, the values of B7 are 361 nM, 0.0143 s⁻¹ and 39700 M⁻¹ s⁻¹.
With B5, the Kd stood at 0.37 nM, the koff was 0.000403 s⁻¹ and the kon is 1.09e+06 M⁻¹ s⁻¹.
B6 gave a Kd of 104 nM, a koff of 0.0152 s⁻¹ and an association rate constant (kon) of 147000 M⁻¹ s⁻¹.

The target in another assay is T3, monkey (Rhesus) BCMA (1-53) fused to the Fc region of human IgG1 (monkey (Rhesus); human, UniProt Q02223 1-54).
T3 construct: Sino Biological Inc. 90103-C02H; also called monkey BCMA; Monkey BCMA (1-53); not shown: Fc region of human IgG1
Kind of assay: ELISA on coated monkey (Rhesus) BCMA, antibody titrated, HRP anti-Fab detection, absorbance 450 nm. As for the experimental part:
as §1
In the case of B1, the binding result is on record as “binds”.
Turning to B2, the “EC50 (read off the curve)” value is approximately 0.2 µg/mL.
Regarding B7, the binding result is recorded as “binds”.
